{
  "source": "the RNAGym collection of RNA variant scans (doi:10.1073/pnas.2313332121)",
  "parents": {"B1": {"name": "TPR t1 (parent)", "chain": "GACCAAUCUGCCCUCAGAGCUCGAGAACAUCUUCGGAUGCAGAGGAGGCAGGCUUCGGUGGCGCGAUAGCGCCAACGUCCUCAACCUCCAAUGCAUCCCACCACAUGAUGAUGCCUGAAGAGCCUUGGUUUUUUG"}},
  "data": [
    {"variants_of": "B1", "assay": "polymerase ribozyme fitness, log enrichment relative to wild type (log ratio); higher = more active; in vitro selection for triplet polymerase activity", "how_it_was_run": "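Mutant libraries of both subunits of a heterodimeric triplet polymerase ribozyme were PCR-built, transcribed, and selected once in triplicate, with frozen incubation at −7 °C and capture of gel-excised extended constructs on streptavidin beads before RT-PCR. Illumina sequencing of input and output libraries was filtered to genotypes with ≥10 input reads and ≥1 read per output. Fitness is the logarithm of genotype enrichment over wild-type enrichment, using inverse-variance-weighted replicate averages. The logarithm is base 2.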", "values": [
      {"variant": "G19U A75G", "polymerase ribozyme fitness (log ratio)": -3.56},
      {"variant": "G19U C53G A91G", "polymerase ribozyme fitness (log ratio)": -3.77},
      {"variant": "A18U G48U G61U C104U", "polymerase ribozyme fitness (log ratio)": -2.08},
      {"variant": "C20A G36A", "polymerase ribozyme fitness (log ratio)": -4.23},
      {"variant": "G19C C28U C34A C53G C64A C114U U126C", "polymerase ribozyme fitness (log ratio)": -6.21},
      {"variant": "A18U G77U", "polymerase ribozyme fitness (log ratio)": -2.27},
      {"variant": "A18U U38G C123A", "polymerase ribozyme fitness (log ratio)": -4.13},
      {"variant": "G19U G71A U78A", "polymerase ribozyme fitness (log ratio)": -4.64},
      {"variant": "G19A G61A", "polymerase ribozyme fitness (log ratio)": -2.53},
      {"variant": "A18U U112A", "polymerase ribozyme fitness (log ratio)": -1.42},
      {"variant": "A18U U112G", "polymerase ribozyme fitness (log ratio)": -2.46},
      {"variant": "C20A G39U G42A U55C C99U G113C G122A C123U", "polymerase ribozyme fitness (log ratio)": -6.79},
      {"variant": "C20A C34U C72U C76A C82A A121C G135U", "polymerase ribozyme fitness (log ratio)": -6.49},
      {"variant": "A18U U21A G51C C53G C56A G57C C79U C115U U130G U131A", "polymerase ribozyme fitness (log ratio)": -5.86},
      {"variant": "G19C C94A U130C", "polymerase ribozyme fitness (log ratio)": -2.66},
      {"variant": "C20A U131G", "polymerase ribozyme fitness (log ratio)": -2.8},
      {"variant": "C20A C53A C79U G110U", "polymerase ribozyme fitness (log ratio)": -4.5},
      {"variant": "G19U C70G", "polymerase ribozyme fitness (log ratio)": -5.52},
      {"variant": "G19U C70A", "polymerase ribozyme fitness (log ratio)": -4.07},
      {"variant": "G19U C70U", "polymerase ribozyme fitness (log ratio)": -3.23},
      {"variant": "C20G A29G C88U U106A", "polymerase ribozyme fitness (log ratio)": -5.14},
      {"variant": "C20A G39A C80U A91C", "polymerase ribozyme fitness (log ratio)": -6.34},
      {"variant": "A18U G44C C73A A90C", "polymerase ribozyme fitness (log ratio)": -1.95},
      {"variant": "A18U G48C G71U C82A", "polymerase ribozyme fitness (log ratio)": -5.32},
      {"variant": "C20A U21A U54C C94U U109G", "polymerase ribozyme fitness (log ratio)": -5.29},
      {"variant": "G19A G117A", "polymerase ribozyme fitness (log ratio)": -4.95},
      {"variant": "G19A C73U C82U C114A", "polymerase ribozyme fitness (log ratio)": -1.84},
      {"variant": "A18U G61A", "polymerase ribozyme fitness (log ratio)": -1.19},
      {"variant": "A18U G61C", "polymerase ribozyme fitness (log ratio)": -5.22},
      {"variant": "G19C C62G C115U", "polymerase ribozyme fitness (log ratio)": -4.26},
      {"variant": "C20A C86A U112A U125G U126G", "polymerase ribozyme fitness (log ratio)": -1.97},
      {"variant": "G19C G61A G113U U129A", "polymerase ribozyme fitness (log ratio)": -4.11},
      {"variant": "C20G A41C C73A U78A A84C C123U U133G", "polymerase ribozyme fitness (log ratio)": -3.7},
      {"variant": "A18U G52C G61C U87C G120C", "polymerase ribozyme fitness (log ratio)": -4.57},
      {"variant": "C20G A27G G120A", "polymerase ribozyme fitness (log ratio)": -5.6},
      {"variant": "G19U U55C G61C", "polymerase ribozyme fitness (log ratio)": -4.04},
      {"variant": "G19A A43U C53U C56A G71C", "polymerase ribozyme fitness (log ratio)": -5.18},
      {"variant": "C20A A43U G113C", "polymerase ribozyme fitness (log ratio)": -5.17},
      {"variant": "C20A C79A U131A", "polymerase ribozyme fitness (log ratio)": -3.6},
      {"variant": "C20A C56U C80U", "polymerase ribozyme fitness (log ratio)": -4.41},
      {"variant": "G19C G45A C72A G120C", "polymerase ribozyme fitness (log ratio)": -1.67},
      {"variant": "C20A A37U U54A", "polymerase ribozyme fitness (log ratio)": -3.54},
      {"variant": "G19C G110C C114U", "polymerase ribozyme fitness (log ratio)": -5.66},
      {"variant": "C20A C115G", "polymerase ribozyme fitness (log ratio)": -4.5},
      {"variant": "C20A G117U U133A", "polymerase ribozyme fitness (log ratio)": -4.77},
      {"variant": "G19U G135U", "polymerase ribozyme fitness (log ratio)": -3.57},
      {"variant": "C20A C49A G63A U81A C104U G120C U133A G135U", "polymerase ribozyme fitness (log ratio)": -4.91},
      {"variant": "G19C G42U G45C C79A C82G", "polymerase ribozyme fitness (log ratio)": -4.37},
      {"variant": "G19U C115G U130G", "polymerase ribozyme fitness (log ratio)": -5.08},
      {"variant": "C20A G39A G77U A121G", "polymerase ribozyme fitness (log ratio)": -1.8},
      {"variant": "G19U C56U", "polymerase ribozyme fitness (log ratio)": -2.37},
      {"variant": "C20A U54G C94U", "polymerase ribozyme fitness (log ratio)": -3.21},
      {"variant": "G19U G110U", "polymerase ribozyme fitness (log ratio)": -5.11},
      {"variant": "G19A C22A G113C", "polymerase ribozyme fitness (log ratio)": -4.67},
      {"variant": "G19C G42U G45C C72A C79A C82G", "polymerase ribozyme fitness (log ratio)": -3.62},
      {"variant": "C20A G58C C72U C76U", "polymerase ribozyme fitness (log ratio)": -3.69},
      {"variant": "C20A G77A G135U", "polymerase ribozyme fitness (log ratio)": -3.74},
      {"variant": "C20A G35U A100U C114A C115U U130C", "polymerase ribozyme fitness (log ratio)": -6.44},
      {"variant": "G19U G39U G48A G63C A111G", "polymerase ribozyme fitness (log ratio)": -4.79},
      {"variant": "C20A A27C", "polymerase ribozyme fitness (log ratio)": -4.9},
      {"variant": "G19U C53G U54A C124A G128A", "polymerase ribozyme fitness (log ratio)": -3.23},
      {"variant": "C20A A50U", "polymerase ribozyme fitness (log ratio)": -4.4},
      {"variant": "G19C G120A", "polymerase ribozyme fitness (log ratio)": -1.56},
      {"variant": "G19U G44A C70A C72U", "polymerase ribozyme fitness (log ratio)": -6.42},
      {"variant": "C20A G52A G60A C98A C99U A105G C114A", "polymerase ribozyme fitness (log ratio)": -5.87},
      {"variant": "C20A C28A G45U A84U C104A G107U C124U", "polymerase ribozyme fitness (log ratio)": -5.96},
      {"variant": "G19A C88U", "polymerase ribozyme fitness (log ratio)": -2.19},
      {"variant": "C20A C22U C49A U92A C115U", "polymerase ribozyme fitness (log ratio)": -7.22},
      {"variant": "G19A U112G", "polymerase ribozyme fitness (log ratio)": -3.87},
      {"variant": "C20A C22U U59G C82A A111U", "polymerase ribozyme fitness (log ratio)": -5.49},
      {"variant": "C20A U54G C64G G113C", "polymerase ribozyme fitness (log ratio)": -7.15},
      {"variant": "G19C C20U C64U", "polymerase ribozyme fitness (log ratio)": -1.8},
      {"variant": "C20A C22U G42U G113U U132A", "polymerase ribozyme fitness (log ratio)": -3.71},
      {"variant": "C20A A74G", "polymerase ribozyme fitness (log ratio)": -3.04},
      {"variant": "G19A G51A", "polymerase ribozyme fitness (log ratio)": -5.49},
      {"variant": "G19A G51C", "polymerase ribozyme fitness (log ratio)": -5.83},
      {"variant": "C20A G65A C94G A105G G110A U125G G128U", "polymerase ribozyme fitness (log ratio)": -5.13},
      {"variant": "G19C C115G", "polymerase ribozyme fitness (log ratio)": -2.22},
      {"variant": "A18U G44A C94A C114A", "polymerase ribozyme fitness (log ratio)": -3.45},
      {"variant": "C20A G48U U55C", "polymerase ribozyme fitness (log ratio)": -3.81},
      {"variant": "G19U G93U", "polymerase ribozyme fitness (log ratio)": -4.25},
      {"variant": "G19U C89G", "polymerase ribozyme fitness (log ratio)": -4.36},
      {"variant": "C20A A26G G63U C99A C104A", "polymerase ribozyme fitness (log ratio)": -6.09},
      {"variant": "G19A U78G C80U", "polymerase ribozyme fitness (log ratio)": -3.52}
    ]}
  ]
}
